One substance from patent publication US20080260789A1 can be followed below.

Experiment [1] deals with Cav channels of P. americana DUM neurons (Periplaneta americana). The experiment can be described thus: cell-based or functional assay.
Experiment [2] addresses α-subunit of the P. americana high conductance calcium-activated potassium channel (pSlo) (Periplaneta americana). Description: cell-based or functional assay.

In experiment [1], rU-ACTX-Hv1a (peptide) yielded an IC50 of block of Cav currents in DUM neurons, whole-cell patch clamp of 409 nM. Further, the IC50 of block of pSlo currents in HEK293 cells, whole-cell patch clamp in experiment [2] is 579 nM.
